Test [1] deals with mouse Transferrin Receptor overexpressed on Hek 293 cells (mouse) (UniProt Q62351). In words: cell-based MSD-ECL binding, Hek293/mTfR cells.
Test [2] has as its target T1, rmTfR (123-763) (mouse, UniProt Q62351 123-763).
T1 construct: range 123-763; also called recombinant mouse transferrin receptor 123-763
In words: Biacore SPR, antibody captured by anti-human IgG Fc, rmTfR (123-763) in solution. How it is done: (§1) The BIACORE assay (Biacore, Inc, Piscataway, N.J.) was used to determine the affinity of antibodies or DVD-Ig proteins with kinetic measurements of on-rate and off-rate constants. Binding of antibodies or DVD-Ig protein to a target antigen (for example, a purified recombinant target antigen) was determined by surface plasmon resonance-based measurements with a Biacore® 1000 or 3000 instrument (Biacore® AB, Uppsala, Sweden) using running HBS-EP (10 mM HEPES [pH 7.4], 150 mM NaCl, 3 mM EDTA, and 0.005% surfactant P20) at 25° C. All chemicals were obtained from Biacore® AB (Uppsala, Sweden) or otherwise from a different source as described in the text. For example, approximately 5000 RU of goat anti-human IgG, (Fcγ), fragment specific polyclonal antibody (Pierce Biotechnology Inc, Rockford, Ill.) diluted in 10 mM sodium acetate (pH 4.5) was directly immobilized across a CM5 research grade biosensor chip using a standard amine coupling kit according to manufacturer's instructions and procedures at 25 μg/ml. Unreacted moieties on the biosensor surface were blocked with ethanolamine. Modified carboxymethyl dextran surface in flowcell 2 and 4 was used as a reaction surface. Unmodified carboxymethyl dextran without goat anti-human IgG in flow cell 1 and 3 was used as the reference surface. For kinetic analysis, rate equations derived from the 1:1 Langmuir binding model were fitted simultaneously to association and dissociation phases of all eight injections (using global fit analysis) with the use of BIAevaluation 4.0.1 software. Purified antibodies or DVD-Ig proteins were diluted in HEPES-buffered saline for capture across goat anti-human IgG specific reaction surfaces. Antibodies or DVD-Ig proteins to be captured as ligands (25 μg/ml) were injected over reaction matrices at a flow rate of 5 μl/minute. The association and dissociation rate constants, kon (M⁻¹ s⁻¹) and koff (s⁻¹) were determined under a continuous flow rate of 25 μl/minute. Rate constants were derived by making kinetic binding measurements at different antigen concentrations ranging from 10-200 nM. The equilibrium dissociation constant (M) of the reaction between antibodies or DVD-Ig proteins and the target antigen was then calculated from the kinetic rate constants by the following formula: KD=koff/kon. Binding was recorded as a function of time and kinetic rate constants were calculated.

The target of test [3] is mouse Transferrin Receptor overexpressed on Hek 293 cells (mouse) (UniProt Q62351). Kind of test: mTfR binding cell-based assay.
Test [4] has as its target T2, mouse Transferrin Receptor overexpressed on Hek 293 cells (mouse, UniProt Q62351 1-763).
T2 construct: whole, on cells; also called mTfR; Hek293/mTfR
Kind of test: cell-based MSD-ECL binding, Hek293/mTfR cells. The procedure: (§2) Meso-scale Discovery (MSD) Electrochemiluminescence (ECL) assays to screen for antibodies or DVD-Ig proteins that bind a desired target antigen expressed on the cell surface were performed as follows: Hek 293 cells overexpressing mouse Transferrin Receptor were added onto MSD 96-well plates (MSD Cat# L11 XB-3, lot#2290-EA). The plates which were blocked using blocking buffer (30% FBS Serum (Hyclone) in PBS) at 37° C. for 1 hour. After incubating at room temperature (RT) for 30 minutes with mild agitation, plates were washed with DPBS 3 times and Abs/DVD-Ig proteins (10,000 ng/ml) were added. After incubating for 1 hour at RT, plates were washed 3 times with DPBS and 25 μl of Goat anti-human Sulfo TAG (MSD Cat# R32AC-, Lot# W001162) at 1 μg/ml was added. Following incubation at RT for 1 hour, plates were washed and MSD read buffer was added before reading on a MSD SECTOR Imager 6000. EC50 values were obtained using Xlfit4 software package.

The target in test [5] is T2, mouse Transferrin Receptor …. Kind of test: mTfR binding cell-based assay. The procedure:
as §2

In test [6] the target is T1, rmTfR (123-763). In words: Biacore SPR, DVD-Ig captured by anti-human IgG Fc, rmTfR (123-763) in solution. How it is done:
as §1, with “Purified antibodies or DVD-Ig proteins were diluted in HEPES-buffered saline for capture across goat anti-human IgG specific reaction surfaces. Antibodies or DVD-Ig proteins to be captured as ligands (25 μg/ml) were injected over reaction matrices at a flow rate of 5 μl/minute.” left out, “Rate constants were derived by making kinetic binding measurements at different antigen concentrations ranging from 10-200 nM.” left out
(Surface plasmon resonance follows binding to a sensor surface in real time, without labels.)

Test [7] deals with T2, mouse Transferrin Receptor …. In words: 293/mTfR cell-based assay. How it is done:
as §2

Another test has as its target T3, TNF (mouse, UniProt P06804 80-235).
T3 sequence (looked up): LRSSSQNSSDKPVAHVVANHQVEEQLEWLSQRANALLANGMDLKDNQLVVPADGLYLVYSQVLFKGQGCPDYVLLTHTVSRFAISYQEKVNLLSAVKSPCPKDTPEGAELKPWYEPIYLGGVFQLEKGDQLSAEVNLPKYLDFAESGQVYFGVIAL
Kind of test: cell-based or functional assay.

A further test deals with rmTfR (119-763) (mouse) (UniProt Q62351). Kind of test: Biacore SPR, antibody captured by anti-human IgG Fc, rmTfR (119-763) in solution.
rmTfR (119-763) (mouse), sequence (Q62351 119-763): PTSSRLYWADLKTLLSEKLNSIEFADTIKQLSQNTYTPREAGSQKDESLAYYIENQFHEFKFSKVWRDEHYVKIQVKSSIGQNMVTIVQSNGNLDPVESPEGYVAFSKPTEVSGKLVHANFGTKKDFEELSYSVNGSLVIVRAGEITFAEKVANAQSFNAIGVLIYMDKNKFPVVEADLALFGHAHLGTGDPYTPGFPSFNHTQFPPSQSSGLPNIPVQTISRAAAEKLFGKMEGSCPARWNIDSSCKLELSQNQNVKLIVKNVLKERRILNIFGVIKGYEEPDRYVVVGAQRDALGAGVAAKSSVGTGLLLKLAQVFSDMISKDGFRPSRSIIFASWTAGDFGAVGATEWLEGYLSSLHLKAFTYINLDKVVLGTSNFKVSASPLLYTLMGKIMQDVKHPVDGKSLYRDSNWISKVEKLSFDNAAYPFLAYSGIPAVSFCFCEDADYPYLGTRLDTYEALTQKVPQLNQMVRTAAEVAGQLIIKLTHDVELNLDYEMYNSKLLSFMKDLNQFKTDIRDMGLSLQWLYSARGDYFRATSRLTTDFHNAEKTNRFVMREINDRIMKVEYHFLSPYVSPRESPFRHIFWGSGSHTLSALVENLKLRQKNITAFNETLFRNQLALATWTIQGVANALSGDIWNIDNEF
The target in test [8] is mouse Transferrin Receptor overexpressed on Hek 293 cells (mouse) (UniProt Q62351). Kind of test: binding signal on TfR against 'Ab, ng/ml'; format not stated for this figure, Examples 4 and 9 describe the cell-based Hek293/mTfR MSD-ECL binding assay.
Test [9] shares this target. Kind of test: TfR binding EC50, cell-based assay (repeats Table 7).

T1 sequence (Q62351 123-763): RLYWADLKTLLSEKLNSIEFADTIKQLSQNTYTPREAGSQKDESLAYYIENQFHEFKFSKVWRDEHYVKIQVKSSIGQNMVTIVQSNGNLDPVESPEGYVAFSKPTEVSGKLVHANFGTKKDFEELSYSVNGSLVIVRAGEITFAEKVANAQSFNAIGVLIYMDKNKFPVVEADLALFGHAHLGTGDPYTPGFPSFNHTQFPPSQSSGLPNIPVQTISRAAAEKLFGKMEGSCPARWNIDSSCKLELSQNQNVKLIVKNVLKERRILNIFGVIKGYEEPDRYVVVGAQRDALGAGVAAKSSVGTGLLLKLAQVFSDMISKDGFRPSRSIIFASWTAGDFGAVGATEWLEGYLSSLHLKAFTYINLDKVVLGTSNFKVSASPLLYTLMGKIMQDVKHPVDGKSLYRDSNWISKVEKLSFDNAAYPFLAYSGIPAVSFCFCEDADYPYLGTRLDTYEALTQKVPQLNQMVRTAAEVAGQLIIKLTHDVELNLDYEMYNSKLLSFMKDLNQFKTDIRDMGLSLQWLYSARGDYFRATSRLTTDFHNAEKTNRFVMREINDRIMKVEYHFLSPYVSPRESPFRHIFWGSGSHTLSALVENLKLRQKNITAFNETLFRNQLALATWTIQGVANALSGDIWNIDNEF
T2 sequence (Q62351 whole entry): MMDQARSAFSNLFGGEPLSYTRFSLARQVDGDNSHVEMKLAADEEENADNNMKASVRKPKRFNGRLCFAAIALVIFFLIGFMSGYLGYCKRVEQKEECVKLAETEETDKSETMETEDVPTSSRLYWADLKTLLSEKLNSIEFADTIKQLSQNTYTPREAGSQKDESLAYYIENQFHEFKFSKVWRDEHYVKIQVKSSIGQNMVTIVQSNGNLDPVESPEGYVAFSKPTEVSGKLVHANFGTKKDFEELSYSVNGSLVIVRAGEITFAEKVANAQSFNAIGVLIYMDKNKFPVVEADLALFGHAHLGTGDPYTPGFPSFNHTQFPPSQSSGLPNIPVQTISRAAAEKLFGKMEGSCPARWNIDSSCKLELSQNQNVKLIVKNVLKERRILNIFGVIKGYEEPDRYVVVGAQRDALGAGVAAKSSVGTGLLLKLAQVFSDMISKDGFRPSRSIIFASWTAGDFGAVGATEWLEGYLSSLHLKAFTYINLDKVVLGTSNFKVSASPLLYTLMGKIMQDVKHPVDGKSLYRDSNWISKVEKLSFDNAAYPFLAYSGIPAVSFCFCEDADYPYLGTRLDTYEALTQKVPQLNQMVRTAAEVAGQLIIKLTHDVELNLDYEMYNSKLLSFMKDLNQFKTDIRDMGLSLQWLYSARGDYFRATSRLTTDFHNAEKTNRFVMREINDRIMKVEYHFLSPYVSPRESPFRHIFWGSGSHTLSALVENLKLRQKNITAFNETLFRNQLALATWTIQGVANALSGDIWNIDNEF
mouse Transferrin Receptor overexpressed on Hek 293 cells (mouse), sequence (Q62351 whole entry): as above

B1: AB402 (antibody, from another filing, V domains shown)
VH: EVQLVESGGGLVQPGGSLRLSCAASGFTFSNYGMHWIRQAPGKGLEWIAMIYYDSSKMNYADTVKGRFTISRDNAKNSLYLQMNSLRAEDTAVYYCAVPTSHYVVDVWGQGTTVTVSS
VL: AIQMTQSPSSLSASVGDRVTITCQASQDIGNWLAWYQQKPGKSPKLLIYGATSLADGVPSRFSGSRSGTDFTLTISSLQPEDFATYYCLQAYNTPWTFGGGTKVEIKR
B1: the EC50 in test [1] turned out to be 0.06 nM. In the test with rmTfR (123-763) [2], this molecule returned a Kd of 3.7 nM, a koff of 6.12e-05 s⁻¹ and a kon of 16400 M⁻¹ s⁻¹. For the same molecule, the EC50 in test [3] was 0.06 nM.

B2: AB403 (antibody, V domains shown)
VH: B1 VH
VL: EIVMTQSPATLSVSPGERATLSCQASQDIGNWLAWYQQKPGQSPRLLIYGATSLADGVPARFSGSRSGTEFTLTISSLQSEDFAVYYCLQAYNTPWTFGGGTKVEIK
notes: also called humanized variant of AB221
Regarding B2, the EC50 in [4] turned out to be 0.09 nM. In the test with rmTfR (123-763) [2], this molecule displayed a Kd of 3.8 nM, a koff of 8.39e-05 s⁻¹ and a kon of 22000 M⁻¹ s⁻¹. For the same molecule, in [5], the EC50 was 0.09 nM.

B3: DVD2360 (bispecific antibody)
VH: EVQLVESGGGLVQPGGSLRLSCAASGFTFSNYGMHWIRQAPGKGLEWIAMIYYDSSKMNYADTVKGRFTISRDNAKNSLYLQMNSLRAEDTAVYYCAVPTSHYVVDVWGQGTTVTVSSASTKGPEVQLLESGGGLVQPGGSLRLSCAASGFTFSNYGMSWVRQAPGKGLEWVASIRSGGGRTYYSDNVKGRFTISRDNSKNTLYLQMNSLRAEDTAVYYCVRYDHYSGSSDYWGQGTLVTVSS
VL: EIVMTQSPATLSVSPGERATLSCQASQDIGNWLAWYQQKPGQSPRLLIYGATSLADGVPARFSGSRSGTEFTLTISSLQSEDFAVYYCLQAYNTPWTFGGGTKVEIKRTVAAPDVVMTQSPLSLPVTPGEPASISCKSSQSLLDSDGKTYLNWLLQKPGQSPQRLIYLVSKLDSGVPDRFSGSGSGTDFTLKISRVEAEDVGVYYCWQGTHFPRTFGQGTKVEIK
notes: DVD-Ig
Turning to B3, in the test with rmTfR (123-763) [6], the Kd was 1.7 nM, the koff was found to be 4.8e-05 s⁻¹ and the kon was found to be 28000 M⁻¹ s⁻¹. This molecule also yielded a 50% effective concentration (EC50) in test [4] of 0.15 nM.

B4: muTNF(8C11)-GS-muTfR(AB221) (bispecific antibody)
VH: EFQLQQSGPELVKPGASVRISCKASGYSFTDYNMNWVKQSNGKSLEWVGVINPNYGSSTYNQKFKGKATLTVDQSSSTAYMQLNSLTSEDSAVYYCARKWGQLGRGFFDVWGTGTTVTVSSGGGGSGGGGSEVQLVESGGGLVQPGNSLTLSCVASGFTFSNYGMHWIRQAPKKGLEWIAMIYYDSSKMNYADTVKGRFTISRDNSKNTLYLEMNSLRSEDTAMYYCAVPTSHYVVDVWGQGVSVTVSS
VL: QIVLSQSPAILSASPGEKVTMTCRASSSVSYMHWFQQKPGSSPKPWIYATSNLASGVPARFSGSGSGTSYSLTISRVEAEDAATYYCQQWSSSPLTFGAGTKLELKRGGSGGGGSGDIQMTQSPASLSASLEEIVTITCQASQDIGNWLAWYQQKPGKSPQLLIYGATSLADGVPSRFSGSRSGTQFSLKISRVQVEDIGIYYCLQAYNTPWTFGGGTKLELK
notes: DVD-Ig; outer 8C11 (TNF), inner AB221 (TfR); also called 8C11-GS-AB221 DVD-Ig protein; TNF-GS-AB221; copies: 2 + 2
On to B4, for which the EC50 in test [7] amounted to 1.68 nM. In addition, the “L929 TNF Neutralization assay IC50” value in the test with TNF stood at 0.59 nM.

B5: AB221 (antibody, from another filing, V domains shown)
VH: EVQLVESGGGLVQPGNSLTLSCVASGFTFSNYGMHWIRQAPKKGLEWIAMIYYDSSKMNYADTVKGRFTISRDNSKNTLYLEMNSLRSEDTAMYYCAVPTSHYVVDVWGQGVSVTVSS
VL: DIQMTQSPASLSASLEEIVTITCQASQDIGNWLAWYQQKPGKSPQLLIYGATSLADGVPSRFSGSRSGTQFSLKISRVQVEDIGIYYCLQAYNTPWTFGGGTKLELKR
As to B5, the EC50 in [1] was 0.1 nM. In the test with rmTfR (119-763) (mouse), this molecule had a Kd of 5 nM, an off-rate constant (koff) of 0.000181 s⁻¹ and a kon of 39400 M⁻¹ s⁻¹. Besides, in [8], the EC50 (read off the curve) amounted to 0.03 µg/mL. In test [3], this molecule yielded an EC50 of 0.12 nM. Moreover, the EC50 in test [9] was found to be 0.1 nM.

B6: muTfR(AB405)-SL-muTNF(8C11) (bispecific antibody)
VH: QVQLVQSGAEVKKPGASVKVSCKASGFTFSNYGMHWIRQAPGQGLEWIAMIYYDSSKMNYADTVKGRFTITRDNSTNTLYMELSSLRSEDTAVYYCAVPTSHYVVDVWGQGTTVTVSSASTKGPEFQLQQSGPELVKPGASVRISCKASGYSFTDYNMNWVKQSNGKSLEWVGVINPNYGSSTYNQKFKGKATLTVDQSSSTAYMQLNSLTSEDSAVYYCARKWGQLGRGFFDVWGTGTTVTVSS
VL: EIVMTQSPATLSVSPGERATLSCQASQDIGNWLAWYQQKPGQSPRLLIYGATSLADGVPARFSGSRSGTEFTLTISSLQSEDFAVYYCLQAYNTPWTFGGGTKVEIKRTVAAPSVFIFPPQIVLSQSPAILSASPGEKVTMTCRASSSVSYMHWFQQKPGSSPKPWIYATSNLASGVPARFSGSGSGTSYSLTISRVEAEDAATYYCQQWSSSPLTFGAGTKLELK
notes: DVD-Ig; outer AB405 (TfR), inner 8C11 (TNF); also called TfR(AB405)-SL-TNF DVD-Ig protein; copies: 2 + 2
B6 came in with an EC50 in [7] of 3.76 nM. For the same molecule, the “L929 TNF Neutralization assay IC50” value in the test with TNF was determined as 4.94 nM.

B7: AB405 (antibody, from another filing, V domains shown)
VH: QVQLVQSGAEVKKPGASVKVSCKASGFTFSNYGMHWIRQAPGQGLEWIAMIYYDSSKMNYADTVKGRFTITRDNSTNTLYMELSSLRSEDTAVYYCAVPTSHYVVDVWGQGTTVTVSS
VL: EIVMTQSPATLSVSPGERATLSCQASQDIGNWLAWYQQKPGQSPRLLIYGATSLADGVPARFSGSRSGTEFTLTISSLQSEDFAVYYCLQAYNTPWTFGGGTKVEIKR
B7: the EC50 in test [1], in [3] and in test [9] was 13.6 nM in each case.

B8: anti-TNF antibody 8C11 (antibody, V domains shown)
VH: EFQLQQSGPELVKPGASVRISCKASGYSFTDYNMNWVKQSNGKSLEWVGVINPNYGSSTYNQKFKGKATLTVDQSSSTAYMQLNSLTSEDSAVYYCARKWGQLGRGFFDVWGTGTTVTVSS
VL: QIVLSQSPAILSASPGEKVTMTCRASSSVSYMHWFQQKPGSSPKPWIYATSNLASGVPARFSGSGSGTSYSLTISRVEAEDAATYYCQQWSSSPLTFGAGTKLELKR
B8: the “L929 TNF Neutralization assay IC50” value with TNF amounted to 5 nM.

A word on the EC50: it is the concentration that produces a half-maximal response. Low readings indicate greater potency, high ones weaker potency. Broadly, the Kd is the concentration at which binding is half-saturated. A higher Kd goes with lower affinity. As a reminder, the koff is the rate constant with which the complex falls apart. The term kon denotes a measure of how fast the partners come together. Low readings indicate slower complex formation, high ones faster complex formation. The EC50 (read off the curve) is the concentration giving half of the maximal effect. Higher therefore signals a need for much substance.

The values above are taken from patent US20160002343A1 (AbbVie / Abbott, published 2016).
